# Source: patent US20240343771A1
# Legend:
# [1] = target: IL-12 receptor (human IL-12Rb1 and IL-12Rb2 on IL-12 bioassay cells) (human) (UniProt P42701)
# [2] = target: IL-12 receptor (human IL-12Rb1 and IL-12Rb2 on IL-12 bioassay cells) (human) (UniProt P42701); remark: listed apart in the source
# [3] = target: IL-12 receptor (human IL-12Rb1 and IL-12Rb2 on IL-12 bioassay cells) (human) (UniProt P42701); remark: listed apart in the source
# [4] = target: IL-12 receptor (human IL-12Rb1 and IL-12Rb2 on IL-12 bioassay cells) (human) (UniProt P42701); remark: listed apart in the source
# Chain of IL-12 receptor (human IL-12Rb1 and IL-12Rb2 on IL-12 bioassay cells) (human) (Q99665 24-862, chain 2 of 2, other chains not shown): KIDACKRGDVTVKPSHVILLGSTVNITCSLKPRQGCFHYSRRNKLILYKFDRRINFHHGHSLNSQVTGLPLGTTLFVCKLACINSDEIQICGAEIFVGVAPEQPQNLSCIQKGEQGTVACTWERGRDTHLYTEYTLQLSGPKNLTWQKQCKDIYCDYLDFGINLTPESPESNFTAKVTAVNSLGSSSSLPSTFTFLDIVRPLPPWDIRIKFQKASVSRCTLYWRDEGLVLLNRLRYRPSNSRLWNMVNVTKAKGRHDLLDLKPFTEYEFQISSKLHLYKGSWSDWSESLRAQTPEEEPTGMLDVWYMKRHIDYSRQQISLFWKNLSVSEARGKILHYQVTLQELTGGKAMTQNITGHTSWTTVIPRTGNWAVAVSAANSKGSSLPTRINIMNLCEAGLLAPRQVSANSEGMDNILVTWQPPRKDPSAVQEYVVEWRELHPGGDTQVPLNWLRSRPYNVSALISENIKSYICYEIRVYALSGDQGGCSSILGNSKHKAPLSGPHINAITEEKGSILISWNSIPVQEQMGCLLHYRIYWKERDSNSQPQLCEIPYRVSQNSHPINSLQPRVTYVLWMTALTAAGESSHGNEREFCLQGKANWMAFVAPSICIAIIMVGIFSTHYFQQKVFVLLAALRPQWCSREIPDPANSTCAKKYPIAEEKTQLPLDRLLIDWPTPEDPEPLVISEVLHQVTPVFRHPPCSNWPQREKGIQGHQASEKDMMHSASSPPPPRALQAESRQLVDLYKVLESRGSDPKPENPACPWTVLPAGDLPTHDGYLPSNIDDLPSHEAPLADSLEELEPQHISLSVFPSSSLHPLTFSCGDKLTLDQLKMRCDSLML
# Chain of hIL12 + MTSP1 (P29459 23-219): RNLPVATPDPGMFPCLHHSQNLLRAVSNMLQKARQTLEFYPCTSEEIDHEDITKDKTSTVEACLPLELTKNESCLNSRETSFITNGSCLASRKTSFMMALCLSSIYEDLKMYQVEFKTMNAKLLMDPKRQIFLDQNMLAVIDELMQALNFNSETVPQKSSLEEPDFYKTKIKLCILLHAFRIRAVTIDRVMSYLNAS
# Chain of hIL12 + MTSP1 (P29460 23-328): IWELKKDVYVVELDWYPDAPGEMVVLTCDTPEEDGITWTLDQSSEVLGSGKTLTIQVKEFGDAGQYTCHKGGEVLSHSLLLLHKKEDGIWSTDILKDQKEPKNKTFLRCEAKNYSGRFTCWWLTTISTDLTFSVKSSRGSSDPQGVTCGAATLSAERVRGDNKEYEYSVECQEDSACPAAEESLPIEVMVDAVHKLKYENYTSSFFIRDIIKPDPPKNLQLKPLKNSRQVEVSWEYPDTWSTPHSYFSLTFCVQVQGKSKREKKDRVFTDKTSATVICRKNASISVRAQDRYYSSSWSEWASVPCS
"EC50 (read off the curve) (luciferase activity, AU; the assay is not described for this figure) [1] [nM]","EC50 (read off the curve) (luciferase reporter in IL-12 bioassay cells expressing human IL-12Rb1, IL-12Rb2 and STAT4) [left graph] [2] [nM]","EC50 (read off the curve) (luciferase reporter in IL-12 bioassay cells expressing human IL-12Rb1, IL-12Rb2 and STAT4) [all three graphs] [3] [nM]","EC50 (read off the curve) (luciferase reporter in IL-12 bioassay cells expressing human IL-12Rb1, IL-12Rb2 and STAT4) [4] [nM]",Substance
0.3,,,,hIL12 + MTSP1 (from UniProt P29459;P29460) (ligand)
,0.1,0.2,0.2,hIL12_His tag (ligand)
,,0.2,0.2,hIL12_His tag + MTSP1 (ligand)
